Assay results published in paper PMC3572911 (Biochemistry, 2013).

Biological target: the molecule itself
Experiment: crystal structure

B1: human liver pyruvate kinase (L-PYK) with the S12D mimic of phosphorylation (enzyme)
chain: not shown
modifications: Cys436 partially oxidized to the sulfenic derivative (sulfenic acid)
stoichiometry N: 4
